Source: patent US20250032605A1

How the values were obtained:
[1] = biological target: rsYNLF-34C (v2 resurfaced YNLF_34C RBD carrying SARS-2 residues 401-507) (bat sarbecovirus YNLF_34C; SARS-CoV-2)
[2] = biological target: SARS-2^hg monomer (hyperglycosylated SARS-2 RBD) (SARS-CoV-2 (engineered)) (UniProt P0DTC2); assay: BLI, Fab on FAB2G sensor, hyperglycosylated construct as analyte
[3] = biological target: SARS-2^hg monomer (hyperglycosylated SARS-2 RBD) (SARS-CoV-2 (engineered)) (UniProt P0DTC2)

Work on B38 Fab yielded a Kd [1] of 1.4 µM, a fold decrease in affinity for B38 [2] of 2 fold and a Kd [3] of 2.1 µM.
